# B1: murine monoclonal antibody 9G11 (antibody, mouse IgG2a, kappa)
# heavy: DVKLVESGGGLVKLGGSLKLSCAASGFTFSSYYMSWVRQTPEKRLELVAAINSQGGSTYYPDTVKGRFTISRDNAKNTLYLQMSSLKSEDTGLYYCARSDYDWAWFAYWGQGTLVTVSAAKTTAPSVYPLAPVCGDTTGSSVTLGCLVKGYFPEPVTLTWNSGSLSSGVHTFPAVLQSDLYTLSSSVTVTSSTWPSQSITCNVAHPASSTKVDKKIEPRGPTIKPCPPCKCPAPNLLGGPSVFIFPPKIKDVLMISLSPIVTCVVVDVSEDDPDVQISWFVNNVEVHTAQTQTHREDYNSTLRVVSALPIQHQDWMSGKEFKCKVNNKDLPAPIERTISKPKGSVRAPQVYVLPPPEEEMTKKQVTLTCMVTDFMPEDIYVEWTNNGKTELNYKNTEPVLDSDGSYFMYSKLRVEKKNWVERNSYSCSVVHEGLHNHHTTKSFSRTPGK
# light: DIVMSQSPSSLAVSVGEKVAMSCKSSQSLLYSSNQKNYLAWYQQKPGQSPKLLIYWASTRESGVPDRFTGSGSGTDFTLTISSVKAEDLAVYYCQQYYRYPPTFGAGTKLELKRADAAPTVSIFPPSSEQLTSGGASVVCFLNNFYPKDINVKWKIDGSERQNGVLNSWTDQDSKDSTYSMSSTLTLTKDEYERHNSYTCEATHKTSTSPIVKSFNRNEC
# notes: also called 9G11 antibody; CD112 murine antibody 9G11
# Legend:
# [1] = target: T1, human CD112 extracellular region His tag fusion protein (human, UniProt Q92692 32-360); assay: competition ELISA, CD112-His coated, blocked ligand TIGIT-Biotin, HRP-streptavidin, OD450
# T1 construct: Bought from Acro; only its extracellular domain stood in the assay; also called CD112-His; CD112 extracellular domain His tag fusion protein; not shown: His tag
# T1 sequence: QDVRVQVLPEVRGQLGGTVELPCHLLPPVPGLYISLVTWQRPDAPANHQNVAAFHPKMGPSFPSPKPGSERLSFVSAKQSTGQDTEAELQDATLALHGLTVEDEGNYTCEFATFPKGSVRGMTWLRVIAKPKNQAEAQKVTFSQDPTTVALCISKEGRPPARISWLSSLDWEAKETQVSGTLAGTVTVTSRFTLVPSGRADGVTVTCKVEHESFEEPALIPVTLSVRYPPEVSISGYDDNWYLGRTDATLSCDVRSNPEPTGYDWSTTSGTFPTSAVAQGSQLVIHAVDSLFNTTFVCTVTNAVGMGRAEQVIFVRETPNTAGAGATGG
# Method: (§1) The ELISA experiment was used to determine the blocking characteristic of the murine antibody CD112 9G11 antibody.
# (§2) The human CD112-His protein (purchased from Acro) was diluted to 2 μg/ml with PBS buffer and added to a 96-well plate in a volume of 100 μl/well and left overnight at 4° C. The PBS buffer solution was sucked off from the 96-well plate. The plate was washed 6 times with PBST (pH 7.2, PBS containing 0.1 vol % of Tween 20) buffer solution. 200 μL of PBS containing 10% BSA was added per well and incubated at 37° C. for 2 hours for blocking. The blocking solution was removed and the plate was washed 6 times with PBST. […] The reaction system was removed. The plate was washed 6 times with PBST. 100 μL of HRP (horseradish peroxidase)-labeled Streptavidin secondary (purchased from Southern Biotech) antibody diluted with PBST containing 0.05% BSA (diluted at 1:5000) per well and incubated for 1 h at 37° C. The plate was washed 6 times with PBST, and 80 μL of TMB (tetramethylbenzidine) was added per well. After 3 min of incubation at room temperature, 80 μL of 4M sulfuric acid was added per well to terminate the reaction. The absorbance was read at […] with a microplate reader.
# [2] = target: T1, human CD112 extracellular region His …; assay: competition ELISA, CD112-His coated, blocked ligand CD226-Biotin, HRP-streptavidin, OD450
# Method: as §1, §2
# [3] = target: T1, human CD112 extracellular region His …; assay: competition ELISA, CD112-His coated, blocked ligand CD112R-Fc-Biotin, HRP-streptavidin, OD450
# Method: as §1, §2
binder,measurement,setting,value
B1,IC50 (read off the curve),[1],~0.5 µg/mL
same,IC50 (read off the curve),[2],~6 µg/mL
same,IC50 (read off the curve),[3],~0.5 µg/mL
